{"source": "patent US20050153923A1", "about": "“Targeted drug delivery using EphA2 or EphA4 binding moieties” (priority 2003, published 2005)", "molecules": {"B1": {"name": "EA2: EphA2 agonistic monoclonal antibody; hybridoma strain EA2.31, ATCC PTA-4380 (antibody, V domains shown)", "VH": "DVKLVESGGGLVKPGGSLKLSCAASGFTFSSYTMSWVRQTPEKRLEWVATISSGGTYTYYPDSVKGRFTISRDNAKNTLYLQMSSLKSEDTAMYYCTREAIFTYWGQGTLVTVSA", "VL": "DIKMTQSPSSMYASLGERVTITCKASQDINNYLSWFQQKPGKSPKTLIYRANRLVDGVPSRFSGSGSGQDYSLTISSLEYEDMGIYYCLKYDEFPYTFGGGTKLEIK"}}, "key": {"[1]": {"target": "T1, EphA2-Ephrin A1-Fc-EA2 complex (Homo sapiens, UniProt P29317)", "T1 construct": "consisting of the extracellular domain of EphA2 linked to human IgG1 constant region (EphA2-Fc)", "T1 sequence (P29317 24-537 limits assumed)": "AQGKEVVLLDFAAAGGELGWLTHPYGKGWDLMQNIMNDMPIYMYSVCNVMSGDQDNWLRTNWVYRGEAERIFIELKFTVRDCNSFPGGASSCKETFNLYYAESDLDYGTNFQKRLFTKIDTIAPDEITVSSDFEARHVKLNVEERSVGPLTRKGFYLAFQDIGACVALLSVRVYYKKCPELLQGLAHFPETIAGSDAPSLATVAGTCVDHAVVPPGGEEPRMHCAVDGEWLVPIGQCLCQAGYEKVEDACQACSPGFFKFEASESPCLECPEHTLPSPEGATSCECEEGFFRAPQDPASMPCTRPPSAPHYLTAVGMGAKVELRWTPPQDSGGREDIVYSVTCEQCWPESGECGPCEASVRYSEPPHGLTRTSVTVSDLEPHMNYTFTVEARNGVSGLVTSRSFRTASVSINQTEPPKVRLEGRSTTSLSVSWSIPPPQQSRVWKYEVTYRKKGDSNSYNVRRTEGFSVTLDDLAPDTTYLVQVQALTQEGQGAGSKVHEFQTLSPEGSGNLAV", "T1 sequence (P20827 19-182 partner limits assumed)": "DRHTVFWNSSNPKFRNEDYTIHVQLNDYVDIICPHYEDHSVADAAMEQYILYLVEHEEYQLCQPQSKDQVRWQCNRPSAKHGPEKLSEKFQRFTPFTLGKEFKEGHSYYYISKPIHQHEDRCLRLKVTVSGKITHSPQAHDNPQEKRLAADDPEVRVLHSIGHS", "assay": "Displacement of biotinylated EA2 from EphA2-Ephrin A1-Fc complex by unlabeled competitor", "assay_type": "binding", "settings": "biotinylated EA2 10 μg/ml; FIG. 18B", "procedure": "(A) EphA2-Fc was incubated with and bound to immobilized Ephrin A1-Fc. Labeled Ephrin A1-Fc (black), EA2 (white) or Eph099B-233.152 (grey) was incubated with the EphA2-Ephrin A1-Fc complex and amount of binding was measured. (B) EphA2-Fc was incubated with and bound to immobilized Ephrin A1-Fc. Labeled EA2 was then incubated with the EphA2-Ephrin A1 complex. Unlabeled competitor was incubated with EphA2-Ephrin A1-EA2 complex in the indicated amount. Competitors were Ephrin A1-Fc (black), EA2 (white) or Eph099B-233.152 (grey).\nThe EphA2-Ephrin A1-Fc complex was prepared as described above. Biotinylated EA2 (10 μg/ml) was then incubated with the complex for 30 min. Unlabeled competitor was incubated with EphA2-Ephrin A1-Fc-EA2 complex in the indicated amount. Unlabeled EA2 could displace the labeled EA2 at concentrations of 100 ng/ml or greater."}, "EphA2-Fc": {"target": "T2, EphA2-Fc (Homo sapiens, UniProt P29317)", "T2 construct": "consisted of the extracellular domain of human EphA2 linked to human immunoglobulin", "T2 sequence (P29317 24-537 limits assumed)": "as the sequence (P29317 24-537 limits assumed) above", "assay": "Competitive ELISA: inhibition of labeled EA2 binding to EphA2-Fc", "settings": "unlabeled antibody, increasing concentrations; FIG. 1", "procedure": "The ability of labeled EA2 monoclonal antibody to bind EphA2-Fc was assayed by competitive ELISA in presence of either unlabeled monoclonal antibodies EA2 or Eph099B-208.261. Ratios of unlabeled to labeled antibody used in the assay are indicated on the x-axis.\nSupernatants from bulk culture hybridomas were screened for immunoreactivity against EphA2 (Table 9, column 4) using standard molecular biological techniques (e.g., ELISA immunoassay). Supernatants were further screened for the ability to inhibit an EphA2 monoclonal antibody (EA2; ATCC deposit no. PTA-4380; see co-pending U.S. patent application Ser. No. 10/436,783, entitled “EphA2 Agonistic Monoclonal Antibodies and Methods of Use Thereof” filed May 12, 2003) from binding to EphA2. […] Additionally, many of the other antibodies could inhibit EA2 binding to EphA2 as well (Table 9, column 3)."}, "[2]": {"test_system": "MDA-MB-231 breast cancer cells", "assay": "Tumor growth, MDA-MB-231 cells implanted orthotopically into athymic mice", "assay_type": "in vivo", "settings": "6 mg/kg i.p. twice a week for 3 weeks; FIG. 7A", "procedure": "Total tumor volume was determined after sacrifice."}, "MCF-7^EphA2 cells": {"test_system": "MCF-7^EphA2 cells", "assay": "Soft agar colonization of MCF-7^EphA2 cells", "assay_type": "cell-based", "settings": "TAM 1 μM, EA2 10 μg/ml", "procedure": "(B) MCF-7 (circles) or MCF-7^EphA2 cells (squares) were implanted into the mammary fatpad (n=15 mice per group) in the presence of supplemental estrogen.\nMCF-7^EPhA2 cells were incubated in the presence of 3 μg/ml of EA2 for the time indicated prior to sample extraction and Western blot analyses with an EphA2-specific antibody (D7). (B) The membrane was stripped and re-probed with a β-catenin-specific antibody as a loading control.\nGrowth assays were conducted as follows. MCF-7^neo (control cells) or MCF7^EphA2 cells were seeded in 96-well plates. […] Colony formation in soft agar was performed as previously described (Zelinski et al., 2001, Cancer Res. 61: 2301-6) and scored microscopically, defining clusters of at least three cells as a positive. The data represent the average of ten separate high-power microscopic fields from each sample and representative of at least three separate experiments. Error bars represent the standard error of the mean of at least three different experiments as determined using Microsoft Excel software.\n(§1) Growth MCF-7^EphA2 cells which had decreased EphA2 expression levels was assayed in soft agar."}, "EphA2": {"target": "EphA2 (Homo sapiens, UniProt P29317)", "sequence (P29317 24-976)": "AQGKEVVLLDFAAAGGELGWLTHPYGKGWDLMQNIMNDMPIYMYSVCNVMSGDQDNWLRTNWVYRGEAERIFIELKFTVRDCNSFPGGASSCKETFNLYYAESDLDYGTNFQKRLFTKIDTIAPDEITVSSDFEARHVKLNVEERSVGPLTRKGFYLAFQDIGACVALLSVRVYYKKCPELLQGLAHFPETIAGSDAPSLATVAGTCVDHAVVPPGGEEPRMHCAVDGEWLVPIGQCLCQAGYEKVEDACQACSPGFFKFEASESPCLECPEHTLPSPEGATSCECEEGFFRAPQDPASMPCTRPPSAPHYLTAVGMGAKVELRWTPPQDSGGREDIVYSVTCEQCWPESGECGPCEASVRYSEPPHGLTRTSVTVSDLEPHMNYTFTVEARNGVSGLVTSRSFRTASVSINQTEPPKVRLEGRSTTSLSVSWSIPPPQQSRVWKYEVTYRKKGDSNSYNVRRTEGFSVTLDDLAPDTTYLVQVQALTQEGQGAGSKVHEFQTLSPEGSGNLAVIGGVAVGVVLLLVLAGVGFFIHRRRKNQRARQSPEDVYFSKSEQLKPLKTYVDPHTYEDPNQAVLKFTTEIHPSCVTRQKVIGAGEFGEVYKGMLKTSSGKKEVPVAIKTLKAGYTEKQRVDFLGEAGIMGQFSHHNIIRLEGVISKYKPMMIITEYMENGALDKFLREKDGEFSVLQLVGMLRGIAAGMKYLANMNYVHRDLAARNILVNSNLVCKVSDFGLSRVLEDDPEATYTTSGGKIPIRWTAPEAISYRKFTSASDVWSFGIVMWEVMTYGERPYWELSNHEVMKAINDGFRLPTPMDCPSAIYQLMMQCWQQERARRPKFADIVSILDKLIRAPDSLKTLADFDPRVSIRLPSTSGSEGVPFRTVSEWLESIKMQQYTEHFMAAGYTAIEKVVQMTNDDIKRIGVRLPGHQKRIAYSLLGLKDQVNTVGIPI", "assay": "EphA2 expression in MCF-7^EphA2 cells after EA2 treatment (Western blot)", "assay_type": "cell-based", "procedure": "MCF-7^EPhA2 cells were incubated in the presence of 3 μg/ml of EA2 for the time indicated prior to sample extraction and Western blot analyses with an EphA2-specific antibody (D7).\nEstrogen-sensitive breast cancer cells, MCF-7 cells, were transfected with and stably overexpressed human EphA2 (MCF-7^EphA2) (pNeoMSV-EphA2 provided by Dr. T. Hunter, Scripps Institute). Western blot analyses confirmed the ectopic overexpression of EphA2 in transfected cells relative to matched controls (data not shown).\nas §1"}}, "note": "Entries after “also recorded” stand apart in the source; their conditions may differ.", "data": [{"molecule": "B1", "values": [{"measurement": "Concentration of unlabeled competitor displacing labeled EA2", "setting": "[1]", "result": "≥ 100", "unit": "ng/mL"}, {"measurement": "Competition with labeled EA2 for binding to EphA2-Fc", "setting": "EphA2-Fc", "result": "could decrease the amount of labeled EA2 binding to EphA2-Fc"}, {"measurement": "Tumor growth, MDA-MB-231 implanted orthotopically", "setting": "[2]", "result": "inhibited"}, {"measurement": "Soft agar colonization response / tamoxifen sensitivity, MCF-7^EphA2 cells", "setting": "MCF-7^EphA2 cells; 1 μM 17β-estradiol, FIGS. 11A, 13C (11A also MCF-7)", "result": "restored a phenotype that was comparable to control MCF-7 cells; also recorded: decreases malignant growth; also recorded: increased the sensitivity of MCF-7^EphA2 cells to tamoxifen"}, {"measurement": "Inhibition / decrease of soft agar colonization, MCF-7^EphA2 cells", "setting": "MCF-7^EphA2 cells; 14 days", "result": 19, "unit": "%"}, {"measurement": "Time EphA2 remained undetectable after EA2 treatment", "setting": "EphA2; 3 μg/ml EA2", "result": "≥ 24", "unit": "h"}, {"measurement": "EphA2 activation and expression level after EA2 treatment", "setting": "EphA2; 3 μg/ml EA2, FIG. 13A", "result": "induced EphA2 activation and subsequent degradation; also recorded: Decreased levels of EphA2 expression were observed within two hours"}]}]}
